Measured values reported in patent US5352772A, “75 Kilodalton interleukin-2 receptor proteins and their uses” (The Trustees of Dartmouth College, priority 1986, dated 1994).

Test: IL-2 binding affinity of the separate receptor chains
Design: species or system human
Settings: read-out: Kd of the chain for IL-2; each chain expressed separately
Method: Monoclonal antibodies reactive with the Tac epitope were made available by Dr. Ellis Reinherz (1HT4; IgG2a Dana-Farber Cancer Center, Boston Mass.). IL-2 and anti-Tac ware radioiodinated using lactoperoxidase-glucose oxidase (Enzymobeads, Biorad, Richmond, Calif.) according to the manufacturer's instructions. The specific activity of anti-Tac was 5.3×10^4 CPM/pmole. […] Binding of both ligands to whole cells was performed, as described in Robb et al., Vol 154 J. Exp. Med., p. […] After 20-min incubation at 37° C., the tubes were centrifuged (8,500×g, 80s), the tips of the tubes containing the cell pellet were severed and the cell-bound and free radioactivity were determined by solid scintillation counting. The calculated values for the number of binding sites per cell were derived by Scatchard analysis of equilibrium binding data after subtraction of nonspecific binding determined in the presence of 150-fold molar excess of unlabeled ligand. […]
Particularly convincing in this regard is the finding that the chain present in limiting amounts dictates the number of high affinity receptors, and either α or β chains can function in this role. […] In contrast, YT cells express […] in excess, and high affinity receptors are detected only when the cells are induced to express β chains.

B1: β chain: previously isolated 55,000 dalton IL-2 receptor protein bearing the Tac epitope (protein, UniProt P01589 22-272, looked up)
Interleukin-2 receptor …: ELCDDDPPEIPHATFKAMAYKEGTMLNCECKRGFRRIKSGSLYMLCTGNSSHSSWDNQCQCTSSATRNTTKQVTPQPEEQKERKTTEMQSPMQPVDQASLPGHCREPPPWENEATERIYHFVVGQMVYYQCVQGYRALHRGPAESVCKMTHGKTRWTQPQLICTGEMETSQFPGEEKPQASPEGRPESETSCLVTTTDFQIQTEMAATMETSIFTTEYQVAVAGCVFLLISVLLLSGLTWQRRQRKSRRTI
Kd: 10 nM
